The text below walks through data of article PMC3925751.

The target in the experiment is the model collagen surfaces. Nature of the experiment: SPR. In general terms: In SPR one partner is held on a chip, and binding of the other changes the refractive index at the surface.

The substance “lubricin (PRG4), purified from human synovial fluid (natural protein)” displayed an adsorbed amount of 1 to 2 mg/m^2.
